The nature of experiment [1]: pNPA method esterase (carboxylesterase) activity assay of spore productions. In kind it is biochemical. The note with it: 30° C. for 30 minutes, absorbance at 400. The protocol: Each of the identified enzymes were evaluated for esterase activity assay using pNBA method described below. Determination of carboxylesterase activity of cargo enzyme in Bacillus thuringiensis spore productions or of free enzyme productions. Three active carboxylesterases cloned into pBCm (Bt EO) and pET28a (E. coli BL21) systems: pnbA (B. subtilis), PytH2 (Sphingobium wenxiniae strain), and MsE1 (Methylobacterium sp). p-Nitrophenyl acetate was the substrate in assays for esterase activity. The hydrolysis of p-nitrophenyl acetate releases p-nitrophenol and acetate, and while p-nitrophenyl acetate is colorless, p-nitrophenol is yellow.
6 mg p-Nitrophenyl acetate (pNPA, CAS #830-03-5, MW: 181.1 g/mol) was weighed and dissolved in 1 mL methanol (CAS #67-56-1, MW: 32.04 g/mol). Stored at −20° C. and kept on ice when preparing reactions.
8.0 g sodium chloride (NaCl, CAS #7647-14-5, MW: 58.44 g/mol), 1.44 g sodium phosphate dibasic was dissolved (Na2HPO4, CAS #7558-79-4, MW: 141.96 g/mol), and 0.24 g potassium phosphate monobasic (KH2PO4, CAS #7778-77-0, 136.09 g/mol) in 800 mL DI H20, then adjust pH to 7.4 using hydrochloric acid (HCl, CAS #7647-01-0, MW: 36.46 g/mol). Make 100 mL aliquots and autoclave.
Esterase from rabbit liver (CAS #9016-18-6, Sigma E0887-powder). Store at −20° C. To prepare a stock dissolve 1 mg in 1 mL PBS, kept on ice when using.
Up to 1 mL spore production was pelleted up for 5 min at max speed. Supernatant was discarded without disturbing spore pellet and suspend pellet in ice-cold PBS. Spores kept suspended on ice until use.
The assay was run at 30° C. for 30 minutes. The assay was shaken continuously. Activity was read on (A) 400 BioTek Synergy/HTX microplate reader was used. The results of pNPA hydrolysis are shown in Table 3 depicting carboxylesterase enzyme activity for each of the five strains using pNPA hydrolysis.

Experiment [2] is described as follows: Biological permethrin assay for esterase activity (activity units of esterases). In kind it is biochemical. The note with it: esterases used in reaction mix for scud assay. As to the method:
A biological permethrin assay was performed for control, and three esterases pnbA, pytH2 and MsE1. The sensitivity of scuds (Hyalella Azteca) to permethrin was tested with three esterases pnbA, pytH2 and MsE1.
For control and each of the three esterases pnbA, pytH2 and MsE1, ten scuds were exposed to permethrin and one of pnbA, pytH2 or MsE1.
• 100 μL 50% MeOH in PBS • 0.2 μg/μL
• 37 degree C. • 18 hr • Shanking 1000 rpm Transferred 20 μL rxn mix [4 μg] to 100 mL [containing 10 scuds] At time, 24 h and 48 h the ten scuds were scored: A=Alive and Moving actively BA=Barely Alive—Difficulty swimming away; only legs are moving D=Dead—Not moving at all The results of which are shown in FIGS. 8 and 9.

B1: E1: pyrethroid-hydrolyzing carboxylesterase pytZ from Ochrobactrum sp., amino acid SEQ. ID No. 1 (protein)
chain: MTTQTYEHRLKAGAKGAPLFIVFHGTGGDENQFFGLAEQLLPDATIMSPRGDVSEYGAARFFRRTGEGVYDMEDLARATDKMAGFIAALAAEYKTSEVIGLGYSNGANIMANLLIEKGRVEDKAALLHPLVPFRPKDNPALEGAKILMTAGRMDPICPPDLTEALAQYFERQKADVELVWHPGGHELRQTELAAVQSLLAY
modifications: Ochrobactrum sp
As to B1, the pNPA hydrolysis result in experiment [1] is listed as “BDL”.

B2: E4: pyrethroid-hydrolyzing carboxylesterase MsE1 from Methylobacterium sp., amino acid SEQ. ID No. 4 (protein)
chain: MTQDTTGFIFIREEPGPDTTRPLMLLHGTGGDENDLLPLGRMVAPEAALLAPRGGVSENGMPRFFRRLAEGVFDEADLRRRTGDLAAFVAASRARYGLGAPLALGFSNGANIAASLLMLRPETLTGAVLIRPMVPFAEPPAADLAGRPVLILSGAMDPIVPVENARRLAQQLSASGARVEHRILPAGHGLSQADVSQALAWLRSLPGPEAA
modifications: Methylobacterium
As for B2, in experiment [1], the pNPA hydrolysis is given as 30.6 ± 0.0 nmol pNPA/min/1E+8 spores. This molecule also came in with an Activity units in experiment [2] of 39.5.

B3: E5: esterase EstP from Klebsiella sp., amino acid SEQ. ID No. 5 (protein)
chain: MEICTKGSRKHLTSRASEPSYNVPENQYVLYVVSSTLSIVICQLVKVAESKKSRFSGAIEKLNERLDSLKDYRIINRDLVVKDLERLKKRFDTEVINAELSEQLAKINVNLSRSYSEKGYLRLEKATGSENEWWAKKPSQNDDWQQFEPDGYTIFSSRDHYASLEKSYSDYEIEAKIPLPLRRGICAVVLYPEYISRICVLPESRSIQREQENFTKLRDKGIALSKKDWQAKLTIDELAEQEKERATINKRLGYFATEHEKVGIVHKALEPKLICPFQQIEKEWRQCKVKSKSTFPNSMTFVQNPAYQAVHSGFKKLKEQIGLADEDILLSLEKIEAIGLVNMPLLYERWCLLQIIKVLTQAFRYQPEDNWKRKLIANIQGNEEQISIQFFNPSVSRAITLQYEPFLANGKRPDFVLDVEAITKSGNQISKRLVVDAKYYSAAYLKQRGGIGGVIHELYNGKDYSECQENSVFVLHPVLDAVEKVVSPQEWAKDSYLGELSMFDWEPAHHQRQATNYGAVCANPMKSQRYLDEIQRMLGMFLQYGIEDNTSFRGASDDTHAVNFCVSCGSEKVVDVTKSMSSNNQKRWYRCNECTHFTVYTHCGTCNTRLIKNGEYWTYLSLMPMSSINIKCPNCESPV
modifications: Klebsiella
Take B3: the pNPA hydrolysis entry in experiment [1] was “BDL”.

B4: E2: pyrethroid-hydrolyzing carboxylesterase pnbA from B. subtilis, amino acid SEQ. ID No. 2 (protein, listed as Bacillus subtilis)
chain: MTHQIVTTQYGKVKGTTENGVHKWKGIPYAKPPVGQWRFKAPEPPEVWEDVLDATAYGSICPQPSDLLSLSYTELPRQSEDCLYVNVFAPDTPSKNLPVMVWIHGGAFYLGAGSEPLYDGSKLAAQGEVIVVTLNYRLGPFGFLHLSSFNEAYSDNLGLLDQAAALKWVRENISAFGGDPDNVTVFGESAGGMSIAALLAMPAAKGLFQICAIMESGASRTMTICEQAASTSAAFLQVLGINEGQLDKLHTVSAEDLLKAADQLRIAEKENFQLFFQPALDPKTLPEEPEKAIAEGAASGIPLLIGTTRDEGYLFFTPDSDVHSQETLDAALEYLLGKPLAEKVADLYPRSLESQIHMMTDLLEWRPAVAYASAQSHYAPVWMYREDWHPKKPPYNKAFHALELPFVFGNLDGLERMAKAEITDEVKQLSHTIQSAWITFAKTGNPSTEAVNWPAYHEETRETLILDSEITIENDPESEICRQKLEPSKGE
On to B4, for which the pNPA hydrolysis in experiment [1] was 19.7 ± 1.4 nmol pNPA/min/1E+8 spores. Moreover, the Activity units in experiment [2] was found to be 31.4.

Source of the values: patent publication US20220047684A1, “ENZYMES AND METHODS FOR PREVENTING AND TREATING […] IN ANIMALS” (Ecto Development Corporation, priority 2020, published 2022).
